# B1: DA_20_10: DA_20_04 with A272N, Q149R, A173C (protein)
# chain: MEIPVIEPLFTKVTEDIPGATGPVFDKNGDFYIVAPYVEVNGKPAGEILRIDLKTGKKTVICKPEVNGYGGIPIGCQCDRDANQLFVADMRLGLLVVQTDGTFEEIAKKDSEGRRMQGCAYCAFDYEGNLWITAPAGEVAPADFTISLREKFGSIYCFTTDGQMIQVDTAFQCPAGIAVRHMNDGRPYQLIVAEQPTKKLWSYDIKGPAKIENKKVWGHIPGTHKGGAAGMDFDEDNNLLVANWGSSHIEVFGPDGGQPKMRIRCPFEKPANLHFKPQTKTIFVTEHENNAVWKFEWQRNGKKQYCETLKFGIFGSLEHHHHHH
# modifications: Enzyme catalyst for Diels-Alder reaction
# notes: DA_20_04 with A272N, Q149R, A173C
# Experiments:
# Type in all cases: biochemical
# [1] = Substrate specificity, LC-MS of product peak area formed per hour; settings: 0.2 mM diene, 10 mM dienophile, 60 μM protein, PBS, 298K
# Protocol: FIG. 19 illustrates the substrate specificity of DA—20—10 and a single mutant of DA—20—10, H287N. Reactions were carried out with 0.2 mM diene 1 (FIG. 1), and 10 mM of one of the six dienophiles depicted in PBS at 298K in the absence or presence of 60 μM DA—20—10 or DA—20—10_H287N. The depicted values in the figure are the mean (bars) and standard deviation (error bars) of four independent measurements of the product peak area (arbitrary units) formed per hour, determined using a liquid chromatography-mass spectroscopy assay.
# To experimentally determine substrate specificities each dienophile from FIG. 19 was either purchased or synthesized. The dienophiles were assayed in the presence or absence of 60 μM DA—20—10 or the H287N mutant over 30 hours with 10 mM dienophile and 0.2 mM diene at 298K in a PBS solution. A sample of the reaction was taken at four different time points, quenched, and filtered as previously described. To detect product a liquid chromatography-mass spectroscopy assay was used. […] The average area of each detected peak formed per hour was used to determine the relative amount of product formed with and without enzyme.
# Besides stereoselectivity, the level of control over a chemical reaction by a designed enzyme is reflected by its substrate specificity. […] The activity against each of the substrates was measured using a liquid-chromatography mass spectroscopy assay.
# [2] = Kinetic characterization: reaction velocity versus diene and dienophile concentration
# Protocol: (A) Dependence of reaction velocity on diene concentration for different fixed dienophile concentrations. The diene concentration was varied from 3.0 to 0.18 mM with a fixed concentration of 100 mM (⋄), 66 mM (Δ), 44 mM (⋄), 30 mM (◯), 20 mM (◯), or 13 mM (●) dienophile (B) Dependence of reaction velocity on dienophile concentration for different fixed diene concentrations. The dienophile was varied from 100 to 13.0 mM with a fixed concentration of 3 mM (♦), 2 mM (▴), 1.3 mM (∇), 0.9 mM (Δ), 0.6 mM (⋄), 0.4 mM (□), 0.26 mM (◯), or 0.18 mM (●) […]. Reactions were carried out with 20 μM protein in PBS at 298 K.
# The kinetics of the DA—20—10 catalyzed reaction was characterized by measuring the dependence of the reaction velocity on the concentration of both diene and dienophile. The effective molarity (kcat/kuncat) of DA—20—10 is 100 M, and the rate enhancement (kcat/(kuncat*KM_diene)) in the presence of saturating dienophile and limiting diene is 1.0×10^5. At high substrate concentrations DA—20—10 proceeds for more than 30 turnovers before the enzyme loses activity. At higher enzyme concentrations more than 80% of the diene substrate is converted to product.
# The errors represent the calculated 95% confidence interval. The parameter a describes the cooperativity of binding between the two substrates: a value greater than one indicates negative cooperativity, whereas a value lower then one indicates positive cooperativity. α could not be determined for DA—20—00. Kinetic parameters for catalytic antibodies 7D4 and 4D5 were taken from (10, 17).
# [3] = Diels-Alder activity assay with purified protein, LC-MSMS product detection; settings: 0.1 mM diene, 3 mM dienophile, PBS, 298K, 20 μM protein
# Protocol: The observed velocity for each mutant was normalized by the velocity of DA—20—00 in order to determine the effective rate enhancement conferred by each mutation. The reactions were done at 1 mM diene, and 10 mM dienophile, PBS, 298K, and 100 μM protein.
# Mutations showing enhanced activity on DA—20—04 were sequenced, grown large scale, and assayed. The assay was done at 0.1 mM dieine, 3 mM dienophile, PBS, 298K, and 20 μM protein.
# The Diels-Alder reactions were performed in PBS, at 25° C., with 4% DMSO. The DMSO came from the diene, for which the stock solution (100 mM) was made in DMSO and always diluted such that the final reaction would contain 4% DMSO. After incubation of the desired amount of diene and dienophile in the presence or absence of the protein, time points were taken of the reaction (5 μL) and quenched in a solution of 80:20 acetonitrile:water with 0.1% formic acid and 1 mM Benzoic Acid (95 μL). This reaction was incubated for 5 minutes and then the precipitated protein filtered using a Millipore multiscreen solvinert filter plate (Product Number: MSRLN0450). 20 μL of the filtered quench solution was then injected and analyzed using a liquid chromatography-tandem mass spectroscopy (LC-MSMS) assay.
# A total of 43 variants were assayed using the standard activity assay. The observed activities are described in Table 2. In Table 2, the Expression column provides the number of times the mutant was expressed; the Observed column reports the raw signal level out of the mass-spec for the product (the Observed column is not normalized nor background corrected); the Concentration column provides the concentration of the protein after large-scale expression. […]
molecule,measurement,setting,value
B1,substrate specificity (in words),[1],highly favor the substrate for which it was designed
same,increase in overall catalytic efficiency over the original design model DA_20_00,[2],roughly 2200 fold
same,kcat relative to those of 7D4 and 4D5,"[2]; DA_20_10 at 298K, antibodies at 310K",10 fold
same,rate enhancement (kcat/(kuncat*KM_diene)) relative to either antibody,"[2]; saturating dienophile and limiting diene, versus 7D4 and 4D5",20 fold
same,effective molarity (kcat/kuncat) relative to either antibody,[2]; versus 7D4 and 4D5,20 fold
same,product formed per hour,[3],154.9 nM of product/hour

# Source: patent US8688427B2, “Enzyme catalysts for diels-alder reactions” (University of Washington, priority 2008, dated 2014)
